# From publication PMC5829831, “Structural Basis for DNA Recognition by the Two-Component Response Regulator RcsB” (mBio, 2018)
# T1: RcsB (Escherichia coli str. K-12 substr. …, UniProt P0DMC7 1-216)
# T1 sequence: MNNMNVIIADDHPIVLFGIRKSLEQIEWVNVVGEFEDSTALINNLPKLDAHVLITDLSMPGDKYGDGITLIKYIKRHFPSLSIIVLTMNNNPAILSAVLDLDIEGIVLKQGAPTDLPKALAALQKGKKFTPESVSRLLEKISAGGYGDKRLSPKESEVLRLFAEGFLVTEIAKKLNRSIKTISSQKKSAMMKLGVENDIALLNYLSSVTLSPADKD
# Key:
# [1] = molecular target: the molecule itself; assay: SEC-MALS; RcsB in the presence of the 22-bp DNA duplex DNA22, with and without CPh; RcsB and DNA 1 mg/ml; Superdex 75 10/300 GL; 10 mM Tris-HCl pH 8.3, 150 mM NaCl, 0.5 mM TCEP; 22°C
# RcsB [2] = molecular target: T1, RcsB; assay: SPR; no CPh; EMSA: 10 mM Tris pH 7.5, 40 mM KCl, 1 mM DTT, 10 mM MgCl2, 5% glycerol, 0.1 ug/ul BSA, room temp; SPR: 10 mM Tris-HCl pH 8.3, 150 mM NaCl, 0.5 mM TCEP, 25 C; conditions: protein: recombinant; tags: N-terminal 6xHis (pCA24n, ASKA clone); chain copies: 2; label: biotin (SPR); blunt
# RcsB [3] = molecular target: T1, RcsB; assay: X-ray crystallography; unphosphorylated, 3.37 A; tetramer on two DNAs; EMSA: 10 mM Tris pH 7.5, 40 mM KCl, 1 mM DTT, 10 mM MgCl2, 5% glycerol, 0.1 ug/ul BSA, room temp; SPR: 10 mM Tris-HCl pH 8.3, 150 mM NaCl, 0.5 mM TCEP, 25 C; conditions: protein: recombinant; tags: N-terminal 6xHis (pCA24n, ASKA clone); chain copies: 2; blunt
binder,measurement,setting,value
"RcsB, two-component response regulator of the Rcs phosphorelay system (natural protein, E. coli, UniProt P0DMC7 1-216, looked up, RcsB from Escherichia coli, full length, REC domain, linker and HTH domain; theoretical mass of the monomer 24 kDa; In some samples carbamoyl phosphate (CPh) and MgCl2 were added to phosphorylate D56; also called RcsB* (in the presence of phosphodonor); unphosphorylated RcsB; source: purified RcsB) MNNMNVIIADDHPIVLFGIRKSLEQIEWVNVVGEFEDSTALINNLPKLDAHVLITDLSMPGDKYGDGITLIKYIKRHFPSLSIIVLTMNNNPAILSAVLDLDIEGIVLKQGAPTDLPKALAALQKGKKFTPESVSRLLEKISAGGYGDKRLSPKESEVLRLFAEGFLVTEIAKKLNRSIKTISSQKKSAMMKLGVENDIALLNYLSSVTLSPADKD",stoichiometry N,[1],2
"DNA22, biotinylated (dsDNA) DNA 1: GATTTAGGAAAAATCTTAGATA DNA 2: TATCTAAGATTTTTCCTAAATC",Kd,RcsB [2],~5.34 µM
DNA18 (flhDC RcsAB box) (dsDNA) DNA 1: TTTAGGAAAAATCTTAGA DNA 2: TCTAAGATTTTTCCTAAA,binding result,RcsB [3],binds
